Changes are numbered by the printed parent chain.

Here are results for 35 molecules from patent US20250026849A1 (ARCELLX, published 2025).

T1: P26 (human, UniProt P02771 381-609, limits assumed)
T1 construct: also called AFP p26
T1 sequence: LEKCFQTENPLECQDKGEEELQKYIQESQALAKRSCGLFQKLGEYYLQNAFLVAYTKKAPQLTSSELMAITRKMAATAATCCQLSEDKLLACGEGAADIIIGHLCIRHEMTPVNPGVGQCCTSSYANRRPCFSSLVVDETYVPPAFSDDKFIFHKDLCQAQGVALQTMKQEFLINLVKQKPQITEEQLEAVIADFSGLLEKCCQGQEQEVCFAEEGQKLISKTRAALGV

B1: D domain SEQ ID NO: 957 (designed binder)
chain: MGSWWVFKKTLAEIKWTLEALGGSEAELAYFEAEIAFFEFILQQYKGKGNPEVEALRKEAAAIRDELQAYRHN
B2: D domain SEQ ID NO: 939 (designed binder)
chain: MGSWVLFKQELAWIKWLLEALGGSEAELAAFEEQIARFEHDLQKYKGKGNPEVEALRKEAAAIRDELQAYRHN
B3: D domain SEQ ID NO: 942 (designed binder)
chain: B2 chain with V5L, Q9S, L17Y, A30E, E33W, Q34N, R37E, H40K, D41N
B4: D domain SEQ ID NO: 943 (designed binder)
chain: B2 chain with V5L, Q9S, E10D, L17R, A30E, Q34S, R37M, D41W, K44E
B5: D domain SEQ ID NO: 941 (designed binder)
chain: B2 chain with V5F, Q9S, L17R, A30Y, E33Y, R37E, H40F, D41W, K44S
B6: D domain SEQ ID NO: 944 (designed binder)
chain: MGSWLYFKSDLAWIKWRLEALGGSEAELADFEEAIAEFEQALQIYKGKGNPEVEALRKEAAAIRDELQAYRHN
B7: D domain SEQ ID NO: 940 (designed binder)
chain: B2 chain with L17Y, E33W, Q34E, R37A, H40Q, D41R, K44I
B8: D domain SEQ ID NO: 955 (designed binder)
chain: MGSWYLFKTELAAIKYRLEALGGSEAELASFEYEIAWFEHILQFYKGKGNPEVEALRKEAAAIRDELQAYRHN
B9: D domain SEQ ID NO: 937 (designed binder)
chain: MGSWEHFKVELAGIKAYLEALGGSEAELALFEWAIADFESILQDYKGKGNPEVEALRKEAAAIRDELQAYRHN
B10: D domain SEQ ID NO: 938 (designed binder)
chain: B9 chain with E5I, H6Y, V9D, A16K, L30M, W33V, S40A, D44K
B11: D domain SEQ ID NO: 935 (designed binder)
chain: MGSWVLFKDYLADIKHYLEALGGSEAELANFEHLIANFEGDLQTYKGKGNPEVEALRKEAAAIRDELQAYRHN
B12: D domain SEQ ID NO: 934 (designed binder)
chain: MGSWENFKDTLAWIKEYLEALGGSEAELAGFEHRIAIFEHYLQYYKGKGNPEVEALRKEAAAIRDELQAYRHN
B13: D domain SEQ ID NO: 948 (designed binder)
chain: MGSWMYFKSHLAWIKWELEALGGSEAELAFFEDNIAQFEYWLQLYKGKGNPEVEALRKEAAAIRDELQAYRHN
B14: D domain SEQ ID NO: 954 (designed binder)
chain: MGSWVRFKTELAYIKESLEALGGSEAELAMFESEIAIFEHSLQTYKGKGNPEVEALRKEAAAIRDELQAYRHN
B15: D domain SEQ ID NO: 949 (designed binder)
chain: MGSWTLFKWDLAFIKWQLEALGGSEAELAWFEYEIAAFEDSLQNYKGKGNPEVEALRKEAAAIRDELQAYRHN
B16: D domain SEQ ID NO: 950 (designed binder)
chain: B15 chain with T5I, W9E, Y33T, E34T, A37N, D40S, S41D, N44K
B17: D domain SEQ ID NO: 933 (designed binder)
chain: MGSWAYFKGQLAYIKSGLEALGGSEAELAYFELRIAYFEHWLQNYKGKGNPEVEALRKEAAAIRDELQAYRHN
B18: D domain SEQ ID NO: 936 (designed binder)
chain: MGSWSLFKHRLANIKVYLEALGGSEAELADFETFIAYFEKDLQEYKGKGNPEVEALRKEAAAIRDELQAYRHN
B19: D domain SEQ ID NO: 947 (designed binder)
chain: MGSWVYFKAHLAFIKWELEALGGSEAELANFESTIAEFEKYLQVYKGKGNPEVEALRKEAAAIRDELQAYRHN
B20: D domain SEQ ID NO: 956 (designed binder)
chain: MGSWYWFKYELAEIKWHLEALGGSEAELAHFEHSIAVFESQLQQYKGKGNPEVEALRKEAAAIRDELQAYRHN
B21: D domain SEQ ID NO: 945 (designed binder)
chain: MGSWKLFKYELAWIKWRLEALGGSEAELADFEASIAQFEKYLQTYKGKGNPEVEALRKEAAAIRDELQAYRHN
B22: D domain SEQ ID NO: 946 (designed binder)
chain: B21 chain with K5Y, Y9N, A33M, S34V, Q37M, K40D, Y41H, T44E
B23: D domain SEQ ID NO: 951 (designed binder)
chain: MGSWYFFKSRLAYIKVYLEALGGSEAELAGFEWEIAHFEEWLQRYKGKGNPEVEALRKEAAAIRDELQAYRHN
B24: D domain SEQ ID NO: 952 (designed binder)
chain: B23 chain with F6I, R10E, Y13W, V16W, G30N, W33V, H37T, E40T, R44G
B25: D domain SEQ ID NO: 953 (designed binder)
chain: MGSWYIFKQELASIKLSLEALGGSEAELAHFEAEIAWFEWWLQWYKGKGNPEVEALRKEAAAIRDELQAYRHN
B26: D domain SEQ ID NO: 965 (designed binder)
chain: MGSWTHFKEDLAHIKDRLEALGGSEAELAAFELDIAWFEFMLQYYKGKGNPEVEALRKEAAAIRDELQAYRHN
B27: D domain SEQ ID NO: 972 (designed binder)
chain: B26 chain with T5S, H6I, E9Q, H13D, R17S, A30M, L33M, F40H, M41T
B28: D domain SEQ ID NO: 960 (designed binder)
chain: B26 chain with T5I, H6I, E9T, H13R, D16N, R17Y, A30T, L33R, Y44I
B29: D domain SEQ ID NO: 961 (designed binder)
chain: B26 chain with T5M, E9Q, H13E, D16G, R17Y, A30I, L33M, F40Y
B30: D domain SEQ ID NO: 964 (designed binder)
chain: B26 chain with T5F, H6V, H13G, D16F, R17I, A30M, L33T, F40Y
B31: D domain SEQ ID NO: 966 (designed binder)
chain: B26 chain with T5Y, H6Y, D10R, H13A, A30I, L33A
B32: D domain SEQ ID NO: 962 (designed binder)
chain: B26 chain with T5Q, H6I, E9Q, H13A, R17Y, A30I, L33F, F40H, Y44W
B33: D domain SEQ ID NO: 958 (designed binder)
chain: MGSWVYFKDHLAEIKSQLEALGGSEAELALFEYDIAWFEFILQYYKGKGNPEVEALRKEAAAIRDELQAYRHN
B34: D domain SEQ ID NO: 963 (designed binder)
chain: B26 chain with T5L, H6A, D16S, R17I, A30E, L33H, F40Y
B35: D domain SEQ ID NO: 959 (designed binder)
chain: B33 chain with D9H, H10R, S16D, L30E, Y33T, F40W, I41M

The target in this assay is T1, P26. The assay can be described thus: ELISA, format not described. Further details: unit not given here.
B1 came in with an ELISA_avg of 18.6. B2 had an ELISA_avg of 29.5. As for B3, the ELISA_avg was 25.7. With B4 the figure was 33.3. Then B5, with 25.8; and B6, with 21.2; and B7, with 22.5. B8: the ELISA_avg is 20.1. Then B9, with 18.1.

The molecule B10 gave an ELISA_avg of 15.9.

For the molecule B11, the ELISA_avg was found to be 13.8. Take B12: the ELISA_avg is 19.2. With B13 the figure was 19.8. With B14 the figure was 20.5.

B15 showed an ELISA_avg of 12.1. With B16 the figure was 23.3. The molecule B17 displayed an ELISA_avg of 11.4. With B18, the ELISA_avg came out at 19.6. B19 yielded an ELISA_avg of 20.8.

B20: the ELISA_avg amounted to 21.5. With B21 the figure was 23.4.

Take B22: the ELISA_avg came out at 31.1. With B23 the figure was 30.1. Regarding B24, the ELISA_avg came to 29.6. Then B25, with 19.4; and B26, with 30.4. With B27 the figure was 16.6.

Take B28: the ELISA_avg is 16.7. Then B29, with 18.9. With B30 the figure was 14.2; with B31, 31.5. Then B32, with 17.4; and B33, with 22.1; and B34, with 18.6. Take B35: the ELISA_avg amounted to 11.1.
